Test results: EP1876240B1 (MOCHIDA PHARMACEUTICAL CO., LTD., dated 2012)
Residue numbers refer to the chain shown, from its start.

T1: GPVI on human platelets (human, UniProt Q9HCN6 21-339)
T1 construct: whole, on cells
T1 sequence (looked up): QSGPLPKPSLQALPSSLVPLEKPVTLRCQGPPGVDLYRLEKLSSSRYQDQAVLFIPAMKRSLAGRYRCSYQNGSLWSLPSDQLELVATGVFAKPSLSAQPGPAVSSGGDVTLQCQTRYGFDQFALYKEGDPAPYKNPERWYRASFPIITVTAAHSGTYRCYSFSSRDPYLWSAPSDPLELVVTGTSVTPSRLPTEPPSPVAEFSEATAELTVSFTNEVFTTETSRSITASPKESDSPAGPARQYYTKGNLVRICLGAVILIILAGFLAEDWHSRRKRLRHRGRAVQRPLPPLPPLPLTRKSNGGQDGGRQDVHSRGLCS

B1: F1232-37-2 (antibody, V domains shown)
VH: VQLQQSGPELVRPGESVKISCKGSGYTFTDYAIHWVKLSHAKSLEWIGVISIYYDDTNYNQKFKGKATMTVDKSSSTAYLELARLTSEDSAIYYCARRRDSSGPYAMDYWGQGTSVTVSS
VL: DIVLTQSPASLAVSLGQRATISCRASESVDSYGNSFMHWYQQKPGQPPKLLIYRASNLESGIPARFSGSGSRTDFTLTINPVEADDVATYYCQQSNEDPYTFGGGTKLEIKR
notes: mouse monoclonal antibody from hybridoma; also called F1232-37-2 (whole antibody)
B2: cF1232-37-2/CHO (antibody, V domains shown)
VH: B1 VH
VL: B1 VL
notes: also called cF1232-37-2 expressed by CHO cells
B3: F1201-18 (antibody, V domains shown)
VH: VQLVESGGGLVKPGGSLKLSCAASGFTFSSYAMSWVRQTPEKRLEWVAIISSGGSYTYYPDSVKGRFTISRDNAKNTLYLHMSSLRSEDTAMYYCARQGGGYFDYWGQGTTLTVSS
VL: B1 VL with L58V, Y100P, G104A, I110L
notes: mouse monoclonal antibody from hybridoma
B4: F1232-18-3 (antibody, V domains shown)
VH: VMLVESGGGLVKPGGSLKLSCAASGFTFSSYAMSWVRQTPEKRLEWVATISSGGSYTYYPDSVKGRFTISRDNAKNTLYLQMSSLRSADTAMYYCARDYGYFDYWGQGTTLTVSS
VL: B1 VL with S31N, N34I, I52F, A84T, E97T, Y100R
notes: as for B3
B5: F1232-7-1 (antibody, V domains shown)
VH: B1 VH with L80M
VL: B1 VL
notes: as for B3
B6: F1249-3-2 (antibody, V domains shown)
VH: EVQLVESGGGLVKPGGSLKLSCAASGFTFSSYGMSWVRQTPDKRLEWVATISSGGSYTYYSDSVKGRFTISRDNAKNNLYLQLSSLKSQDTAIYYCARDSGYFDYWGQGTTLTVSS
VL: B1 VL with D1N, R54L, I62V, N80D, V87A, S95N, Y100R
B7: F1232-24-1 (antibody, V domains shown)
VH: VQLQQSGAELVRPGVSVKISCKGSGYTFTDYAMHWVKQSHAKSLEWIGVISTYYGDASYNQKFKGKATMTVDKSSSTAYMELARLTSEDSAIYYCARSYDYDPWFAYWGQGTLVTVSA
VL: B1 VL with S31N, N34I, A84T, E97K, Y100L, G104A, I110L
notes: as for B3
B8: F1232-17-1 (antibody, V domains shown)
VH: VQLVESGGDLVKPGGSLKLSCAASGFTFSSYGMSWVRQTPDKRLEWVATISSGGSYTYYPDNVKGRFTISRDNAKNTLYLQMSSLNSEDTAMYYCARQVYYFGSCDYWGQGTTLTVSS
VL: B1 VL with S31N, N34I, A84T, E97K, Y100W
notes: as for B3

Legend:
[1] = target: T2, human GPVI extracellular region-human Fc fusion protein (hGPVI-hFc) (human); experiment: SPR (BIACORE3000) as in Example 5
T2 construct: expressed in COS-1, Protein A purified; also called GPVI-HHH-hFc; hGPVIHHH-hFc

[2] = target: T2, human GPVI extracellular region-human …; experiment: SPR (BIACORE3000), GPVI-hFc coupled to CM5 chip, antibody 1.25-40 nM, bivalent analyte fit
Target sequence in this assay (chain, as listed by the source limits assumed): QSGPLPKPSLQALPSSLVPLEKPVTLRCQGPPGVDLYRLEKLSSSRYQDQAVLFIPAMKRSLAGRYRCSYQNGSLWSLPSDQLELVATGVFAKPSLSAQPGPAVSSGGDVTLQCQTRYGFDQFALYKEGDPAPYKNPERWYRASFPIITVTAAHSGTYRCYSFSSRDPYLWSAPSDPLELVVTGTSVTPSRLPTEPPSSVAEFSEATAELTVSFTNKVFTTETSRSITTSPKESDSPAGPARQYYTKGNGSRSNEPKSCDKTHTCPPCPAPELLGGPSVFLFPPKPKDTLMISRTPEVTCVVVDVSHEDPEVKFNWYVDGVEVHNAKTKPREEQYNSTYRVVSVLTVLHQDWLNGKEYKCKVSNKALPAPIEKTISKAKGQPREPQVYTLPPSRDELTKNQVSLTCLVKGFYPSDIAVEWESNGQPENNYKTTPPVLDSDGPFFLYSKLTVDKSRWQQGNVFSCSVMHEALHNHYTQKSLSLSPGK

[3] = target: cynomolgus monkey D1D2-human D3 chimeric GPVI-human Fc fusion protein (GPVI-FFH-hFc) (cynomolgus monkey (D1, D2) and human …); experiment: as above
Chain of cynomolgus monkey D1D2-human D3 chimeric GPVI-human Fc fusion protein (GPVI-FFH-hFc) (cynomolgus monkey (D1, D2) and human …) (chain, as listed by the source mutant limits assumed): as the sequence (chain, as listed by the source limits assumed) above, with S2R, S61H, L78P, R166G, V181M, P442S counted along it

GPVI on human platelets = target: T1, GPVI on human platelets; experiment: homologous competitive binding of [125I]-labeled and non-labeled antibody on washed human platelets (n=3, mean±S.E.)
[4] = target: T3, GPVI on cynomolgus monkey platelets (cynomolgus monkey, UniProt A0A2K5VXN2 21-318); experiment: homologous competitive binding of [125I]-labeled and non-labeled antibody on washed cynomolgus platelets (n=3, mean±S.E.)
T3 construct: whole, on cells; also called simian platelets
T3 sequence (A0A2K5VXN2 entry or part of it): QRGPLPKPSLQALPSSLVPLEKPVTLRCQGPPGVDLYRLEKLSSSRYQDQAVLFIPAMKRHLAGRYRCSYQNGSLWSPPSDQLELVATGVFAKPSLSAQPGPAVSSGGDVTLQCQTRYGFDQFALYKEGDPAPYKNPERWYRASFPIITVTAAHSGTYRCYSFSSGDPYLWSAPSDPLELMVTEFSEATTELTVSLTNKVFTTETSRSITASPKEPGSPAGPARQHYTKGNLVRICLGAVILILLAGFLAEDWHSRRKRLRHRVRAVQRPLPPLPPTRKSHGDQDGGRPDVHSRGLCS

| Binder | KD (Relative value) against F1232-37-2 [1] | Kd [2] [nM] | Kd [3] [nM] | Kd (GPVI on human platelets) [nM] | Kd [4] [nM] |
| --- | --- | --- | --- | --- | --- |
| B1 | 1 relative to KD of F1232-37-2 | 0.403 | 1 | – | – |
| B2 | – | – | – | 17 | 20 |
| B3 | – | 1.16 | – | – | – |
| B4 | – | 1.65 | 365 | – | – |
| B5 | – | – | 343 | – | – |
| B6 | 1.59 relative to KD of F1232-37-2 | – | – | – | – |
| B7 | – | 0.25 | 0.71 | – | – |
| B8 | – | 0.522 | 0.177 | – | – |
